# Results taken from publication doi:10.1101/2023.03.14.530545 (bioRxiv, 2023).
# B1: 6xHis-CnTps1 (full-length Cryptococcus neoformans trehalose-6-phosphate synthase) (enzyme, UniProt Q6IVK9 1-670, looked up)
# chain: MTTMSNDIPNSPTSTSFTGTFSPAATAANTAANARTSDAPSPTTSSSGPKLETSKEQRLIVVSNRLPVTISKDDNGEYHFKMSSGGLVSALSGCKKTMSFTWIGWPGKDIPMQDRETVNRRLLDEYNCYPVYLSDELADSHYNGSFSNSILWPLFHYHPGEMNFDAAHWLAYREANMRFADVVSSLVQAGDMVWVQDYHLMLLPMLLRSMITGESAQGEMVRQELGRVKEGVDDTVVKEVLKMGPGVAQAEDEGVEMLDDVEEEGGEMDVKSSPKRPHYARGMSTFQKQELVAKEKGKEGIRIGFFLHTPFPSSEIYRILPVRREILLGVLQCDLIGFHTYDYARHFLSSCTRILGLETQPNGIEFDGRYCQVGTFPIGIDPNQFIEGLQKESIVKRLRSLEARFEGVKVIIGVDRLDYIKGIPQKLQALETFLTQHPEWIGKVVLVQLAIPSRQDVEEYQDLRACVNELVGRINGRFGTVESVPIHYMHKSVPFEELTAMYALADACLVTSTRDGMNLVAYEYISSQAERHGSMILSEFAGAAQSFNGSLLINPWDVQSTADAINQALTLSPQQRKTNWQKLFNYVSKYTAEAWGVSFVNELNRLSGQRPSGPTGLAGRRKSGSLSRTSSKASIQRRKSSQSGIVTGLGAAAGAAVNWAQAQVQGGSQT
# Tests used:
# [1] = target: CnTps1 ΔIDD (Cryptococcus neoformans var. grubii strain H99 | Candida albicans) (UniProt Q6IVK9); experiment: SEC
# cryo-EM structure = target: the molecule itself; experiment: cryo-EM structure
Molecule,stoichiometry N [1],stoichiometry N (cryo-EM structure)
CnTps1 ΔIDD (from UniProt Q6IVK9 1-208; Q6IVK9 301-669) (enzyme),4,
B1,,4
